Measured values from patent US20250145684A1 (IMMATICS BIOTECHNOLOGIES, published 2025).

These binders were tested against T1, HLA-B*08:01 (human) (assay: UV peptide exchange ELISA).
T1 construct: MHC monomer first loaded with a UV-sensitive peptide that is cleaved by UV light and exchanged for the test peptide
From the text: Candidate peptides for T cell based therapies according to the present invention were further tested for their MHC binding capacity (affinity). The individual peptide-MHC complexes were produced by UV-ligand exchange, where a UV-sensitive peptide is cleaved upon UV-irradiation and exchanged with the peptide of interest as analyzed. Only peptide candidates that can effectively bind and stabilize the peptide-receptive MHC molecules prevent dissociation of the MHC complexes. To determine the yield of the exchange reaction, an ELISA was performed based on the detection of the light chain (β2m) of stabilized MHC complexes. The assay was performed as generally described in Rodenko et al. (Rodenko et al., 2006).
96 well MAXISorp plates (NUNC) were coated over night with 2 ug/ml streptavidin in PBS at room temperature, washed 4× and blocked for 1 h at 37° C. in 2% BSA containing blocking buffer. Refolded HLA-A*02:01/MLA-001 monomers served as standards, covering the range of 15-500 ng/ml. Peptide-MHC monomers of the UV-exchange reaction were diluted 100-fold in blocking buffer. Samples were incubated for 1 h at 37° C., washed four times, incubated with 2 ug/ml HRP conjugated anti-β2m for 1 h at 37° C., washed again and detected with TMB solution that is stopped with […]. Absorption was measured at 450 nm. Candidate peptides that show a high exchange yield (preferably higher than 50%, most preferred higher than 75%) are generally preferred for a generation and production of antibodies or fragments thereof, and/or T cell receptors or fragments thereof, as they show sufficient avidity to the MHC molecules and prevent dissociation of the MHC complexes.

Binder | peptide exchange yield
SVPVRSSPL [SVPVRSSPL (SEQ ID NO: 177)] | 20 to 50%
IPRLAVISI [IPRLAVISI (SEQ ID NO: 178)] | 20 to 50%
LPLTEHEL [LPLTEHEL (SEQ ID NO: 179)] | 50 to 75%
LAVPIFVAL [LAVPIFVAL (SEQ ID NO: 180)] | 20 to 50%
LSLVRKAL [LSLVRKAL (SEQ ID NO: 18)] | 50 to 75%
SIRSSYSRF [SIRSSYSRF (SEQ ID NO: 181)] | 20 to 50%
ILHLSAIAL [ILHLSAIAL (SEQ ID NO: 182)] | ≥ 75%
YVSKPGAQL [YVSKPGAQL (SEQ ID NO: 183)] | 20 to 50%
DRLKPLKM [DRLKPLKM (SEQ ID NO: 184)] | 20 to 50%
MELKTVKPI [MELKTVKPI (SEQ ID NO: 185)] | 20 to 50%
DLISPRQPRL [DLISPRQPRL (SEQ ID NO: 186)] | 20 to 50%
VPYNSVLF [VPYNSVLF (SEQ ID NO: 187)] | 20 to 50%
EIMEKTTL [EIMEKTTL (SEQ ID NO: 188)] | 20 to 50%
APDNVLLTL [APDNVLLTL (SEQ ID NO: 189)] | 20 to 50%
ELLNRIYF [ELLNRIYF (SEQ ID NO: 190)] | 20 to 50%
FTLLRRLSL [FTLLRRLSL (SEQ ID NO: 19)] | 50 to 75%
RPLKPGEVL [RPLKPGEVL (SEQ ID NO: 191)] | 20 to 50%
EEKHFTTL [EEKHFTTL (SEQ ID NO: 192)] | 20 to 50%
LGGLRLTAL [LGGLRLTAL (SEQ ID NO: 193)] | 20 to 50%
RAIEHVLQV [RAIEHVLQV (SEQ ID NO: 194)] | 50 to 75%
EGNQKSVI [EGNQKSVI (SEQ ID NO: 195)] | 20 to 50%
LDLRQKVL [LDLRQKVL (SEQ ID NO: 196)] | 20 to 50%
YKAYPSQL [YKAYPSQL (SEQ ID NO: 197)] | 20 to 50%

Binder | peptide exchange yield
FPLTSIIAI [FPLTSIIAI (SEQ ID NO: 198)] | 50 to 75%
IPFIHLPEI [IPFIHLPEI (SEQ ID NO: 199)] | 20 to 50%
VAAARAVPV [VAAARAVPV (SEQ ID NO: 200)] | 20 to 50%
QIMPKAGL [QIMPKAGL (SEQ ID NO: 2)] | 50 to 75%
ILKRFLAC [ILKRFLAC (SEQ ID NO: 20)] | 50 to 75%
TASAMQHVL [TASAMQHVL (SEQ ID NO: 201)] | 50 to 75%
RIPEKASFL [RIPEKASFL (SEQ ID NO: 202)] | 20 to 50%
DVYTQVSAF [DVYTQVSAF (SEQ ID NO: 203)] | 20 to 50%
MSPLLRSI [MSPLLRSI (SEQ ID NO: 204)] | 20 to 50%
YMQYGFLSM [YMQYGFLSM (SEQ ID NO: 205)] | 20 to 50%
MEFPNKFNTL [MEFPNKFNTL (SEQ ID NO: 206)] | 20 to 50%
LRKRKSPE [LRKRKSPE (SEQ ID NO: 207)] | 20 to 50%
LPPPQPLSL [LPPPQPLSL (SEQ ID NO: 208)] | 20 to 50%
SRFGKFVQL [SRFGKFVQL (SEQ ID NO: 209)] | 20 to 50%
QPNTHQLL [QPNTHQLL (SEQ ID NO: 210)] | 20 to 50%
RILKRFLAC [RILKRFLAC (SEQ ID NO: 21)] | 50 to 75%
DVISKGVSL [DVISKGVSL (SEQ ID NO: 211)] | 20 to 50%
EEYKFPSL [EEYKFPSL (SEQ ID NO: 212)] | 20 to 50%
FPSLFINQF [FPSLFINQF (SEQ ID NO: 213)] | 20 to 50%
DAPRHRLL [DAPRHRLL (SEQ ID NO: 214)] | 20 to 50%
NPLIEIISI [NPLIEIISI (SEQ ID NO: 215)] | 20 to 50%
EARPPSPAV [EARPPSPAV (SEQ ID NO: 216)] | 20 to 50%
ETIKGHSVRL [ETIKGHSVRL (SEQ ID NO: 217)] | 20 to 50%

Binder | peptide exchange yield
DNHPRLVTL [DNHPRLVTL (SEQ ID NO: 218)] | 50 to 75%
VRNPKILIL [VRNPKILIL (SEQ ID NO: 219)] | 20 to 50%
LAVRHLSL [LAVRHLSL (SEQ ID NO: 220)] | 20 to 50%
EVRLKPIL [EVRLKPIL (SEQ ID NO: 22)] | 20 to 50%
SLKEELLSL [SLKEELLSL (SEQ ID NO: 221)] | 50 to 75%
AQKAELIAL [AQKAELIAL (SEQ ID NO: 222)] | 20 to 50%
DVSARKLRV [DVSARKLRV (SEQ ID NO: 223)] | 20 to 50%
LPYPPQKVV [LPYPPQKVV (SEQ ID NO: 224)] | 20 to 50%
MPKRAHWGA [MPKRAHWGA (SEQ ID NO: 225)] | 50 to 75%
DIYEVAVSL [DIYEVAVSL (SEQ ID NO: 226)] | 50 to 75%
SRFPGMSVL [SRFPGMSVL (SEQ ID NO: 227)] | 20 to 50%
TLRAYVLAL [TLRAYVLAL (SEQ ID NO: 228)] | 50 to 75%
DTHTNTYYL [DTHTNTYYL (SEQ ID NO: 229)] | 20 to 50%
DVYFHHVL [DVYFHHVL (SEQ ID NO: 230)] | 20 to 50%
DIKKTNESL [DIKKTNESL (SEQ ID NO: 23)] | 20 to 50%
GEKLLRPSL [GEKLLRPSL (SEQ ID NO: 231)] | 20 to 50%
KLYIHRVTL [KLYIHRVTL (SEQ ID NO: 232)] | 20 to 50%
DVKLVFVM [DVKLVFVM (SEQ ID NO: 233)] | 20 to 50%
VFRVGISF [VFRVGISF (SEQ ID NO: 234)] | 20 to 50%
SPNSLVTIL [SPNSLVTIL (SEQ ID NO: 235)] | 50 to 75%
STLKKSLEI [STLKKSLEI (SEQ ID NO: 236)] | 20 to 50%
LPLDSRYVTL [LPLDSRYVTL (SEQ ID NO: 237)] | 50 to 75%
